Laboratory results taken from patent publication US20040088744A1.

Biological target: fusion protein consisting of apoB17 and the receptor binding domain of apoB ("B17(B69-79)")
Assay: cell-based or functional assay

**Q.** Which secretion of the fusion protein does the source give for “ligand binding domain of the LDL receptor ("soluble LDL receptor") (from UniProt P01130 22-354)” here?
**A.** Its secretion of the fusion protein is 10 fold.
